Where a chain is given by its changes, count along the chain named.
B1: PRT-404 (protein)
chain: MVTSVWTKGVTPPADFTQGEDVFHAPYVANQGWYDITKTFNGKDDLLCGAATAGNMLHWWFDQNKEYIEAYLKKHPEKQKIMFGDQELLDVRKAINTKGSQKNSELFNYFRDKAFPNLSARRLGVMPDLVLDMFINGYYLNVTKTQTTDVNRTYQEKDKRGGIFDAVFTRGDQSKLLTSRHDFKEKGLKEISDLIKQELTEGKALGLSHTYANVRIGHVINLWGADFDSDGNLKAIYVTDSDSNASIGMKKYFVGVNSAGKVAISAKEIKEDNIGAQVLGLFTLSTGQDIWNQTN
B2: PRT-412 (protein)
chain: B1 chain with G217N, S258A
B3: PRT-405 (protein)
chain: B1 chain with G217N, F253G
B4: PRT-397 (protein)
chain: B1 chain with R215G, G217N
B5: PRT-578 (protein)
chain: MANQEIRYSKATPKVITSVWTKGVTPPEDFTYNEDVFHAPYLPNQGWYDITKTFNGKDDLLCGAATAGNMLHWWFDQNKEQIERYLKEHPEKQKINFNGEQMFDVKEAIDTKDSQTNSKLFEYFKDKAFPYLSTKHLGVFPDHVIDMFINGYRLSLTNHGPTPVKEQNKDPRGGIFDAVFTRGDQSKLLTSRHDFKEKTLKEISDLIKQELKEGKALGLSHTYANVRINHVINLWGADFDAEGNLEAIYVTDSDSNASIGMKKYYVGVNSAGKVAISAKEIEGDNIGAQVLGLFTLSTGKDIWEQTNLEHHHHHH
B6: PRT-420 (protein)
chain: MTITSVWTKGVTPPTPEDFRYNNEDVLHAPYVANQGWYDITKTFDGKDNLLCGAATAGNMLHWWFDQNKEEIERYLKKHPEKQKIIFNNQEWFDVKAAIDTKDSQTNSKLFNYFRDKAFPNLSARQLGVMPDLVLDMFINGYYLNLGKTQSTDVNRPYQDKDKRGGIFDAVFTRGDQTTLLTARHDLKNKGLNEISDLIKQELTEGKALALSHTYANVRINHVINLWGADFDAEGNLIAIYVTDSDANASIGMKKYFVGVNANGKVAISAKKIEGDNIGAQVLGLFTLSTGQDIWQKLS
B7: PRT-428 (protein)
chain: B6 chain with W92L, A247T
B8: PRT-413 (protein)
chain: B6 chain with Y21E, W92L
B9: PRT-429 (protein)
chain: B6 chain with W92L, N248R
B10: PRT-421 (protein)
chain: B6 chain with W92L, N112D
B11: PRT-381 (protein)
chain: MVTSVWTKGVTPPTNFTYGEDVLHAPYVANQGWYDITKTFNGKDDLLCGAATAGNMLHWWFDQNKEQIENYLKKHPEKQKINFNGEQMFDVKEAIDTKDSQLDSKLFEYFKEKAFPYLSTKHLGVFPDHVIDMFINGYRLSLTNHGPTPVKRGSKDPRGGIFDAVFTRGDQSKLLTNRHDFKEKTLKEISDLIKQELTEGKALGISHTYANVRINHVINLWGADFDAEGNLEAIYVTDSDSNPSIGMKKYFVGVNSNGKVAISAKEIEEDNIGAQVLGLFTLSTGQDIWNQTN
B12: PRT-390 (protein)
chain: B11 chain with M88L, P243A
B13: PRT-382 (protein)
chain: B11 chain with P243A, F251V
B14: PRT-389 (protein)
chain: B11 chain with N84K, P243A
B15: PRT-543 (protein)
chain: MANQEIRYSKNENPNVTIKWVHGIGEPTQSEKEKIEFWWYETTTTKFFNNRKVDPLGDGNQCWAKTDSNMLHWWFVQNEENINQYIEKKNITGKINFNGEQMFDVKEGIDDNQEPEKSYIANTFRTKKAHNLSTKHKGDYIINGLSWYLYGLNNFKNAHGPTPVKKKPKFYGPALFKDVFNRGDGNTPIIVETDFKEYTKKEFEDTLSAALDSKKAIGINIYGSNVDYQHAITLWGAAFDEEENIIAIYVVDNNFKFENRIFPYGIWYEKEGRPYLFNYEINSFVKNRYVGEITTLDKGEAQWQETNLEHHHHHH
B16: PRT-547 (protein)
chain: MANQEIRYSEETPKTITSVWTKGVTPPTDFIQNEDVLHAPYIANQGWYDITKTFNGKDDLLCGAATAGNMLHWWFDQNKEEIENYLKKHPEKQKINFNGEQMFDVKEAIDTKDSQTDSALFEYFKDKAFPYLSTKHLGVFPDHVIDMFINGYRLSLTNHGPTPVKRGTKDPRGGIFDAVFTRGDQSKLLTARHDFKEKTLNEISDLIKQELTEGKALGLSHTYANVRINHVINLWGADFNSEGNLEAIYVTDSDSNASIGMKKYYVGVNAAGKVAISAKEIEGDNIGAQVLGLFTLSTGQDIWEQTNLEHHHHHH
B17: PRT-590 (protein)
chain: B16 chain with K14S, I16V, E81Q, A191S, S241A, A270S, E304N
B18: PRT-600 (protein)
chain: B16 chain with K14S, E81Q, A191S, S241A, A270S, I302S, E304N
B19: PRT-584 (protein)
chain: B16 chain with D29N, Q32Y, E81Q, N84R, D117N, A119K, G167Q, A191S, S241A, A270S

Each protein was assayed against pooled human IgG (human IgG1, 2, 3 and 4).

Compared with B1, B2 is higher in Enzyme Activity Endpoint Assay (purified): Fab′2: 0 ng/µL for the first, 518 ng/µL for the second.

Going from B3 to B4, the Enzyme Activity Endpoint Assay (purified): Fab′2 rises from 86 ng/µL to 102 ng/µL.

First: B6
Second: B7
The Enzyme Activity Endpoint Assay (purified): Fab′2 of the first is higher: 515 ng/µL for the first, 505 ng/µL for the second.

First: B8
Second: B9
The Enzyme Activity Endpoint Assay (purified): Fab′2 of the first is lower: 485 ng/µL for the first, 528 ng/µL for the second.

First: B10
Second: B11
The Enzyme Activity Endpoint Assay (purified): Fab′2 of the first is higher: 612 ng/µL for the first, 486 ng/µL for the second.

First: B12
Second: B13
The Enzyme Activity Endpoint Assay (purified): Fab′2 of the first is lower: 578 ng/µL for the first, 585 ng/µL for the second.

In the case of B14, the Enzyme Activity Endpoint Assay (purified): Fab′2 is reported as 479 ng/µL.

Going from B1 to B2, the Enzyme Activity Endpoint Assay (purified): Fc rises from 0 ng/µL to 103 ng/µL.

First: B3
Second: B4
The Enzyme Activity Endpoint Assay (purified): Fc of the first is lower: 218 ng/µL for the first, 243 ng/µL for the second.

Compared with B6, B7 is higher in Enzyme Activity Endpoint Assay (purified): Fc: 300 ng/µL for the first, 336 ng/µL for the second.

Going from B8 to B9, the Enzyme Activity Endpoint Assay (purified): Fc rises from 347 ng/µL to 348 ng/µL.

Compared with B10, B11 is lower in Enzyme Activity Endpoint Assay (purified): Fc: 340 ng/µL for the first, 334 ng/µL for the second.

First: B12
Second: B13
The Enzyme Activity Endpoint Assay (purified): Fc of the first is lower: 371 ng/µL for the first, 380 ng/µL for the second.

B14 showed an Enzyme Activity Endpoint Assay (purified): Fc of 340 ng/µL.

Going from B1 to B2, the Enzyme Activity Endpoint Assay (purified): IgG falls from 1580 ng/µL to 0 ng/µL.

Going from B3 to B4, the Enzyme Activity Endpoint Assay (purified): IgG falls from 406 ng/µL to 93 ng/µL.

Going from B6 to B7, the Enzyme Activity Endpoint Assay (purified): IgG falls from 125 ng/µL to 90 ng/µL.

Compared with B8, B9 is higher in Enzyme Activity Endpoint Assay (purified): IgG: 14 ng/µL for the first, 57 ng/µL for the second.

Going from B10 to B11, the Enzyme Activity Endpoint Assay (purified): IgG falls from 71 ng/µL to 0 ng/µL.

B12 and B13 are the same in Enzyme Activity Endpoint Assay (purified): IgG: 0 ng/µL for the first, 0 ng/µL for the second.

For B14, the Enzyme Activity Endpoint Assay (purified): IgG was 32 ng/µL.

Going from B1 to B2, the Enzyme Activity Endpoint Assay (purified): scIgG rises from 0 ng/µL to 170 ng/µL.

Compared with B3, B4 is lower in Enzyme Activity Endpoint Assay (purified): scIgG: 558 ng/µL for the first, 498 ng/µL for the second.

First: B6
Second: B7
The Enzyme Activity Endpoint Assay (purified): scIgG of the first is lower: 0 ng/µL for the first, 119 ng/µL for the second.

Going from B8 to B9, the Enzyme Activity Endpoint Assay (purified): scIgG rises from 152 ng/µL to 171 ng/µL.

Going from B10 to B11, the Enzyme Activity Endpoint Assay (purified): scIgG rises from 0 ng/µL to 194 ng/µL.

Going from B12 to B13, the Enzyme Activity Endpoint Assay (purified): scIgG falls from 227 ng/µL to 226 ng/µL.

B14 showed an Enzyme Activity Endpoint Assay (purified): scIgG of 219 ng/µL.

Going from B5 to B12, the Enzyme Activity Endpoint Assay: Fab′2 falls from 698 ng/µL to 578 ng/µL.

Going from B15 to B16, the Enzyme Activity Endpoint Assay: Fab′2 rises from 0 ng/µL to 527 ng/µL.

Compared with B17, B18 is higher in Enzyme Activity Endpoint Assay: Fab′2: 954 ng/µL for the first, 992 ng/µL for the second.

For B19, the Enzyme Activity Endpoint Assay: Fab′2 was 552 ng/µL.

Going from B5 to B12, the Enzyme Activity Endpoint Assay: Fc falls from 394 ng/µL to 371 ng/µL.

First: B15
Second: B16
The Enzyme Activity Endpoint Assay: Fc of the first is lower: 0 ng/µL for the first, 359 ng/µL for the second.

Compared with B17, B18 is higher in Enzyme Activity Endpoint Assay: Fc: 217 ng/µL for the first, 441 ng/µL for the second.

In the case of B19, the Enzyme Activity Endpoint Assay: Fc is reported as 369 ng/µL.

B5 and B12 are the same in Enzyme Activity Endpoint Assay: IgG: 0 ng/µL for the first, 0 ng/µL for the second.

Compared with B15, B16 is lower in Enzyme Activity Endpoint Assay: IgG: 1470 ng/µL for the first, 0 ng/µL for the second.

B17 and B18 are the same in Enzyme Activity Endpoint Assay: IgG: 0 ng/µL for the first, 0 ng/µL for the second.

In the case of B19, the Enzyme Activity Endpoint Assay: IgG is reported as 51 ng/µL.

First: B5
Second: B12
The Enzyme Activity Endpoint Assay: scIgG of the first is lower: 0 ng/µL for the first, 227 ng/µL for the second.

First: B15
Second: B16
The Enzyme Activity Endpoint Assay: scIgG of the first is lower: 0 ng/µL for the first, 256 ng/µL for the second.

B17 and B18 are the same in Enzyme Activity Endpoint Assay: scIgG: 0 ng/µL for the first, 0 ng/µL for the second.

B19 showed an Enzyme Activity Endpoint Assay: scIgG of 285 ng/µL.
